The results in this text go back to publication PMC5716069.

For orientation: Kd means the equilibrium constant for the complex coming apart.

Like-named read-outs stand apart in the source and are kept apart here.

The target of data set [1] is T1, Loqs-PDΔNC (Drosophila melanogaster, UniProt Q9VJY9-4 129-322).
T1 sequence: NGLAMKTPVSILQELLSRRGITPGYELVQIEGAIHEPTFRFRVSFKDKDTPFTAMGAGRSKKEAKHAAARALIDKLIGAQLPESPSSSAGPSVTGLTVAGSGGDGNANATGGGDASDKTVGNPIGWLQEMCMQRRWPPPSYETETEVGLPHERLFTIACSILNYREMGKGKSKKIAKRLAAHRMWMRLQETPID
Briefly: fluorescence anisotropy.

Data set [2] concerns the target T2, Loqs dsRBD2 (Drosophila melanogaster, UniProt Q9VJY9-4 245-322).
T2 sequence: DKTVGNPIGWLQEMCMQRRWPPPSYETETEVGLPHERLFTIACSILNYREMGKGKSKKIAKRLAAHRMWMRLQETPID
Briefly: fluorescence anisotropy.

For data set [3], the target named is T3, Loqs-PD (Drosophila melanogaster, UniProt Q9VJY9-4 1-359).
T3 sequence: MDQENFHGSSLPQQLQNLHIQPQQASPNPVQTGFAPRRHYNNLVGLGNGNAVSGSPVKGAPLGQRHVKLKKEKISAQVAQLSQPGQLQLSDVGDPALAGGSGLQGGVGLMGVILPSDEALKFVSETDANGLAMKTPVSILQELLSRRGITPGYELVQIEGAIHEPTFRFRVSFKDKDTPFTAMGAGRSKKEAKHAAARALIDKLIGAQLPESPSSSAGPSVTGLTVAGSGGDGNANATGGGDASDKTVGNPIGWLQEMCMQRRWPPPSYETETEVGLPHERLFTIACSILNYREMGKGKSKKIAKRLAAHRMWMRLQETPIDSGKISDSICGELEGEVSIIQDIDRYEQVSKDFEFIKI
Briefly: fluorescence anisotropy.

Data set [4] deals with T4, Loqs dsRBD1 (Drosophila melanogaster, UniProt Q9VJY9-4 129-211).
T4 sequence: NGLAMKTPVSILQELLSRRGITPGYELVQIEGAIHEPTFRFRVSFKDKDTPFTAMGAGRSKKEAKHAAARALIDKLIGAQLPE
Nature of the data set: fluorescence anisotropy. On the technique in general: Polarisation of emitted light reports the rotation of a fluorescent probe.

The next data set deals with Dcr-2 (Drosophila melanogaster, UniProt A1ZAW0 1-1722). Nature of the data set: 4-thioU UV cross-linking.
Dcr-2, sequence (A1ZAW0 whole entry): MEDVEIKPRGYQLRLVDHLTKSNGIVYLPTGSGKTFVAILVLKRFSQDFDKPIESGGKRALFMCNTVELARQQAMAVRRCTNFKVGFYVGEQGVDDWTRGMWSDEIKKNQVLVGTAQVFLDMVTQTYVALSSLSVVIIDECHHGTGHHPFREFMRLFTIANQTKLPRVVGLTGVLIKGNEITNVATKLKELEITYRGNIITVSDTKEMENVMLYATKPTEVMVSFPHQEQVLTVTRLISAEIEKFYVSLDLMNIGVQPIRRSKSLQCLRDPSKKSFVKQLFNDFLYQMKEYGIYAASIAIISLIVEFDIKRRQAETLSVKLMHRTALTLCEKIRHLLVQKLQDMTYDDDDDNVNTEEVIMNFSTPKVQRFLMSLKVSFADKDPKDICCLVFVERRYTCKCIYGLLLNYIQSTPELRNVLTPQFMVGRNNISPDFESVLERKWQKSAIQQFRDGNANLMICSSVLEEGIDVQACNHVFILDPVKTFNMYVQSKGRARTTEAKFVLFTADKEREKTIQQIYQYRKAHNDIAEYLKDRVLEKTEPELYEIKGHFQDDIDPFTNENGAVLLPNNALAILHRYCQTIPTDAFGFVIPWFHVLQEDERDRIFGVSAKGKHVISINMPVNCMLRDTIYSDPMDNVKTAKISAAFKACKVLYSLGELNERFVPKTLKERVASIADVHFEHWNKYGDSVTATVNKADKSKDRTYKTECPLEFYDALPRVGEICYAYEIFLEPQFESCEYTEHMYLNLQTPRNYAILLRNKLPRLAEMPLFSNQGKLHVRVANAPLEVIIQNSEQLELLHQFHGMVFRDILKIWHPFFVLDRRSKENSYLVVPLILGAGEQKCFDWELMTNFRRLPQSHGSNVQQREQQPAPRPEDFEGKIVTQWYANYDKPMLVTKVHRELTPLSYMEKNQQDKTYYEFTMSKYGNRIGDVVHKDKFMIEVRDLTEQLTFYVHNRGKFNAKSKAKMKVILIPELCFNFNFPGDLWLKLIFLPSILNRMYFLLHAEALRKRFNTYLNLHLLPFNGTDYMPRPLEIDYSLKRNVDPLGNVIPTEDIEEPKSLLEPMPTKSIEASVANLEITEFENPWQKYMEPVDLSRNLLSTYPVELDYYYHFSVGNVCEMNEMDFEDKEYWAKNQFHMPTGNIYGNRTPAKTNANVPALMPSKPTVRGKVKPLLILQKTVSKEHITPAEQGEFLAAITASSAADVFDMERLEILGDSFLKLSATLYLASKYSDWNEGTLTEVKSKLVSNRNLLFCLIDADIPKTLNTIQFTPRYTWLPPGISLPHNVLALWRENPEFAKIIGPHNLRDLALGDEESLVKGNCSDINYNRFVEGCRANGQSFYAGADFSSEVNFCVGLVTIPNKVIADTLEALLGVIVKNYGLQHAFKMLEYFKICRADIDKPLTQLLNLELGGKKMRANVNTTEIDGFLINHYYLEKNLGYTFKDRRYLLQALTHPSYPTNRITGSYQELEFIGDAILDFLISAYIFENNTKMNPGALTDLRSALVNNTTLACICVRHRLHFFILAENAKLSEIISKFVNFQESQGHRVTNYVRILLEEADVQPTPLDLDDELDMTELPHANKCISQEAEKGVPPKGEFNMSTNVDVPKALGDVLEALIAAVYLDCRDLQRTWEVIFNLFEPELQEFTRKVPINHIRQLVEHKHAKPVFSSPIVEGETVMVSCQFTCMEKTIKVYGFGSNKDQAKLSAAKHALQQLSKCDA
Data set [5] deals with T2, Loqs dsRBD2. Briefly: 4-thioU UV cross-linking.
Data set [6] has as its target T4, Loqs dsRBD1. Briefly: 4-thioU UV cross-linking.
Data set [7] has as its target T1, Loqs-PDΔNC. Briefly: 4-thioU UV cross-linking.
The target in data set [8] is T3, Loqs-PD. Nature of the data set: 4-thioU UV cross-linking.
The target of data set [9] is T5, Dcr-2;Loqs-PD (Drosophila melanogaster;Drosophila …, UniProt A1ZAW0;Q9VJY9-4 1-1722;1-359, |). Briefly: 4-thioU UV cross-linking.
T5 sequence (A1ZAW0 whole entry, one chain of several): as the sequence (A1ZAW0 whole entry) above
Data set [10] concerns the target T1, Loqs-PDΔNC. Briefly: NMR PRE.
Data set [11] addresses T1, Loqs-PDΔNC. Briefly: fluorescence anisotropy and EMSA.
For data set [12], the target named is T2, Loqs dsRBD2. Briefly: fluorescence anisotropy and EMSA.
The target in data set [13] is T1, Loqs-PDΔNC. Nature of the data set: NMR.
The target in data set [14] is T1, Loqs-PDΔNC. Nature of the data set: NMR titration.
Data set [15] concerns the target T2, Loqs dsRBD2. Briefly: NMR titration.
The target of data set [16] is T4, Loqs dsRBD1. Nature of the data set: NMR titration.
The next data set concerns the target T6, Loqs-PDΔNC Δ41 (Drosophila melanogaster, UniProt Q9VJY9-4 129-322, del209-249).
T6 sequence: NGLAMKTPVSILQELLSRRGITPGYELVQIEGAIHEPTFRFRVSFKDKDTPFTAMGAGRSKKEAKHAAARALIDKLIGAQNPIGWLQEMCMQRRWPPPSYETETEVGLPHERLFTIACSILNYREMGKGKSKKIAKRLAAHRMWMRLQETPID
Nature of the data set: NMR titration.

The target in data set [17] is T5, Dcr-2;Loqs-PD. Briefly: 4-thioU UV cross-linking. The source holds these as a separate data set.
Data set [18] deals with T1, Loqs-PDΔNC. Nature of the data set: NMR PRE. The source holds these as a separate data set.

B1: 35 nt dsRNA, FITC (dsRNA)
RNA 1: GAUUCAUACAAGUGAGAUCAUUUUGAAAGCUGAUU
RNA 2: UCAGCUUUCAAAAUGAUCUCACUUGUAUGAAUCAA
modifications: 5'-phosphate
With B1, the Kd turned out to be 86 ± 18 nM in the data set with Loqs-PDΔNC [1], 229 ± 48 nM with Loqs dsRBD2 [2], 62 ± 5 nM in the data set with Loqs-PD [3] and 191 ± 29 nM with Loqs dsRBD1 [4].

B2: ban-siRNA, 4-thioU series (dsRNA)
RNA 1: UCAGCUUUCAAAAUGAUCUCACU
RNA 2: UGAGAUCAUUUUGAAAGCUGAUU
modifications: one 4-thiouridine per duplex, position varied; 5'-phosphate
In the case of B2, the binding result with Dcr-2, with Loqs dsRBD2 [5], in the data set with Loqs dsRBD1 [6], with Loqs-PDΔNC [7], in the data set with Loqs-PD [8] and with Dcr-2;Loqs-PD [9] was “binds” throughout.

B3: bantam miRNA/miRNA*, FITC (dsRNA)
RNA 1: UGAGAUCAUUUUGAAAGCUGAUU
RNA 2: UCGGUUUUCGAUUUGGUUUGACU
modifications: 5'-phosphate
Consider B3, for which the Kd was determined as 97 ± 21 nM with Loqs-PDΔNC [1], 241 ± 75 nM in the data set with Loqs dsRBD2 [2], 118 ± 17 nM with Loqs-PD [3] and 233 ± 17 nM with Loqs dsRBD1 [4].

B4: 14 nt RNA, FITC (dsRNA)
RNA 1: UGAGAUCAUUUUGA
RNA 2: UCAAAAUGAUCUCAUU
modifications: 5'-phosphate
Turning to B4, the Kd was found to be 128 ± 41 nM with Loqs-PDΔNC [1], 334 ± 8 nM with Loqs dsRBD2 [2], 118 ± 15 nM with Loqs-PD [3] and 365 ± 62 nM in the data set with Loqs dsRBD1 [4].

B5: highly asymmetric siRNA, TEMPO (dsRNA)
RNA 1: GUAACUUUCAAAAUGAGCGCCUU
RNA 2: GGCGCUCAUUUUGAAAGUUACUU
modifications: TEMPO at either 5' end
As to B5, the binding result with Loqs-PDΔNC [10] is “binds”.

B6: nicked siRNA, FITC (dsRNA)
RNA 1: UGAGAUCAUUUUGAAAGCUGAUU
RNA 2: UCAGCUUUCAA
RNA 3: AAUGAUCUCACU
modifications: nick between 11 and 12 of S1 strand; 5'-phosphate
For the molecule B6, the binding result with Loqs-PDΔNC [11] and in the data set with Loqs dsRBD2 [12] was “binds” each time.

B7: ban-siRNA GG variant, isotope-labeled (dsRNA)
RNA 1: GGAGCUUUCAAAAUGAUCUCCUU
RNA 2: GGAGAUCAUUUUGAAAGCUCCUU
For the molecule B7, the binding result with Loqs-PDΔNC [13] is given as “binds”.

B8: ban-siRNA, unlabeled (dsRNA)
RNA 1: UCAGCUUUCAAAAUGAUCUCACU
RNA 2: UGAGAUCAUUUUGAAAGCUGAUU
Regarding B8, the binding result in the data set with Loqs-PDΔNC [14], in the data set with Loqs dsRBD2 [15], in the data set with Loqs dsRBD1 [16] and in the data set with Loqs-PDΔNC Δ41 was “binds” throughout.

B9: ban-siRNA, FITC (dsRNA)
RNA 1: UGAGAUCAUUUUGAAAGCUGAUU
RNA 2: UCAGCUUUCAAAAUGAUCUCACU
modifications: 5'-phosphate
With B9, the Kd with Loqs-PDΔNC [1] is 82 ± 21 nM; with Loqs dsRBD2 [2], 278 ± 24 nM; in the data set with Loqs-PD [3] it was 50 ± 6 nM; in the data set with Loqs dsRBD1 [4], 228 ± 27 nM.

B10: nicked siRNA, passenger nicked, 4-thioU (dsRNA)
RNA 1: UGAGAUCAUUUUGAAAGCUGAUU
RNA 2: UCAGCUUUCAA
RNA 3: AAUGAUCUCACU
modifications: nick 11/12; 4-thiouridine in intact strand
Consider B10, for which the binding result with Dcr-2;Loqs-PD [17] is listed as “binds”.

B11: ban-siRNA GG variant, TEMPO (dsRNA)
RNA 1: GGAGCUUUCAAAAUGAUCUCCUU
RNA 2: GGAGAUCAUUUUGAAAGCUCCUU
modifications: TEMPO at either 5' end (G1 or G24)
In the case of B11, the binding result in the data set with Loqs-PDΔNC [18] was “binds”.
